Measurements reported in the Immune Epitope Database (IEDB).

How the values were obtained:
Assay in all cases: IEDB peptide-MHC binding, purified MHC/competitive/radioactivity; filed as Kd, often an IC50 or EC50 that approximates it; ≥ and ≤ were set here for values at or beyond the usual limits of such assays
HLA-A*02:02 = details: source organism: Vaccinia virus WR
HLA-A*02:03 = target: HLA-A*02:03
HLA-A*02:06 = target: HLA-A*02:06
HLA-A*11:01 = target: HLA-A*11:01
HLA-A*68:01 = target: HLA-A*68:01
HLA-A*31:01 = target: HLA-A*31:01
HLA-A*03:01 = target: HLA-A*03:01
HLA-A*33:01 = target: HLA-A*33:01
[1] = source organism: Vaccinia virus WR
[2] = source organism: Dengue virus 1 Brazil/97-11/1997
[3] = source organism: SARS coronavirus Tor2
[4] = source organism: Mammarenavirus juninense
[5] = source organism: Mammarenavirus lassaense

Sequence: RVLYDEFVTI
- Kd (HLA-A*02:02): 153 nM
- Kd (HLA-A*02:03; [1]): 178 nM
- Kd (HLA-A*02:06; [1]): 6.62 nM

Sequence: SADNHPKMIK
- Kd (HLA-A*11:01; [1]): 2.04 nM
- Kd (HLA-A*68:01; [1]): 15.1 nM
- Kd (HLA-A*31:01; [1]): 33.7 nM
- Kd (HLA-A*03:01; [1]): 16.7 nM
- Kd (HLA-A*33:01; [1]): 144 nM

Sequence: SIFVSTMPV
- Kd (HLA-A*02:02): 37.5 nM
- Kd (HLA-A*02:03; [1]): 6.58 nM
- Kd (HLA-A*02:06; [1]): 81.9 nM

Sequence: SILARRPTPK
- Kd (HLA-A*11:01; [1]): 1.44 nM
- Kd (HLA-A*68:01; [1]): 147 nM
- Kd (HLA-A*31:01; [1]): 372 nM
- Kd (HLA-A*03:01; [1]): 1.08 nM
- Kd (HLA-A*33:01; [1]): 12300 nM

Sequence: SLCPTKKLV
- Kd (HLA-A*02:02): 3160 nM
- Kd (HLA-A*02:03; [1]): 2660 nM
- Kd (HLA-A*02:06; [1]): 11900 nM

Sequence: SLFPLCLSTT
- Kd (HLA-A*02:03; [2]): 0.3 nM

Sequence: SLIKFISDNK
- Kd (HLA-A*11:01; [1]): 23.7 nM
- Kd (HLA-A*68:01; [1]): 69.1 nM
- Kd (HLA-A*31:01; [1]): 2650 nM
- Kd (HLA-A*03:01; [1]): 14.9 nM
- Kd (HLA-A*33:01; [1]): ≥ 70000 nM

Sequence: SLVSKHWELT
- Kd (HLA-A*02:02): 409 nM
- Kd (HLA-A*02:03; [1]): 34.6 nM
- Kd (HLA-A*02:06; [1]): 2680 nM

Sequence: SMVSAGSGEV
- Kd (HLA-A*02:03; [2]): 144 nM

Sequence: SQIFNIISYI
- Kd (HLA-A*02:02): 61.7 nM
- Kd (HLA-A*02:03; [1]): 181 nM
- Kd (HLA-A*02:06; [1]): 23.5 nM

Sequence: SQVNPITLTA
- Kd (HLA-A*02:06; source organism: Dengue virus 2 Jamaica/1409/1983): 129 nM

Sequence: SSIDVDKRTK
- Kd (HLA-A*11:01; [1]): 0.841 nM
- Kd (HLA-A*68:01; [1]): 19.1 nM
- Kd (HLA-A*31:01; [1]): 752 nM
- Kd (HLA-A*03:01; [1]): 493 nM
- Kd (HLA-A*33:01; [1]): 8970 nM

Sequence: SSYSLFDMSK
- Kd (HLA-A*11:01; [3]): 3.25 nM
- Kd (HLA-A*68:01; [3]): 42.2 nM
- Kd (HLA-A*31:01; [3]): 253 nM
- Kd (HLA-A*03:01; [3]): 18 nM
- Kd (HLA-A*33:01; [3]): 10100 nM

Sequence: SVKNLILNFL
- Kd (HLA-A*02:02): 1040 nM
- Kd (HLA-A*02:03; [1]): 163 nM
- Kd (HLA-A*02:06; [1]): 551 nM

Sequence: SWPLQCPLDH
- Kd (HLA-A*11:01; [4]): ≥ 69700 nM
- Kd (HLA-A*68:01; [4]): ≥ 70100 nM
- Kd (HLA-A*31:01; [4]): ≥ 22800 nM
- Kd (HLA-A*03:01; [4]): ≥ 70000 nM
- Kd (HLA-A*33:01; [4]): ≥ 38500 nM

Sequence: TFKIDAVRY
- Kd (HLA-A*11:01; [1]): 18900 nM
- Kd (HLA-A*68:01; [1]): 1900 nM
- Kd (HLA-A*31:01; [1]): ≥ 34900 nM
- Kd (HLA-A*03:01; [1]): ≥ 78000 nM
- Kd (HLA-A*33:01; [1]): ≥ 77700 nM

Sequence: TIGTIAGGV
- Kd (HLA-A*02:02): 298 nM
- Kd (HLA-A*02:03; [1]): 17.4 nM
- Kd (HLA-A*02:06; [1]): 1140 nM

Sequence: TIKYSNDNRY
- Kd (HLA-A*11:01; [1]): 8860 nM
- Kd (HLA-A*68:01; [1]): 956 nM
- Kd (HLA-A*31:01; [1]): ≥ 29900 nM
- Kd (HLA-A*03:01; [1]): ≥ 20600 nM
- Kd (HLA-A*33:01; [1]): ≥ 70000 nM

Sequence: TITTFIPISA
- Kd (HLA-A*02:02): 4060 nM
- Kd (HLA-A*02:03; [1]): 176 nM
- Kd (HLA-A*02:06; [1]): 4840 nM

Sequence: TLFYCDERDA
- Kd (HLA-A*02:02): 271 nM
- Kd (HLA-A*02:03; [1]): 2150 nM
- Kd (HLA-A*02:06; [1]): 19500 nM

Sequence: TLILSNKLLY
- Kd (HLA-A*11:01; [1]): 1010 nM
- Kd (HLA-A*68:01; [1]): 4330 nM
- Kd (HLA-A*31:01; [1]): 18000 nM
- Kd (HLA-A*03:01; [1]): 1290 nM
- Kd (HLA-A*33:01; [1]): 18700 nM

Sequence: TLMSIISTFH
- Kd (HLA-A*11:01; [5]): ≥ 34600 nM
- Kd (HLA-A*68:01; [5]): 2920 nM
- Kd (HLA-A*31:01; [5]): 8710 nM
- Kd (HLA-A*03:01; [5]): 6370 nM
- Kd (HLA-A*33:01; [5]): 15900 nM

Sequence: TMADLVYALR
- Kd (HLA-A*11:01; [3]): 898 nM
- Kd (HLA-A*68:01; [3]): 9.4 nM
- Kd (HLA-A*31:01; [3]): 81.3 nM
- Kd (HLA-A*03:01; [3]): 2250 nM
- Kd (HLA-A*33:01; [3]): 136 nM

Sequence: TSKTTILSK
- Kd (HLA-A*11:01; [1]): 403 nM
- Kd (HLA-A*68:01; [1]): 1110 nM
- Kd (HLA-A*31:01; [1]): 2020 nM
- Kd (HLA-A*03:01; [1]): 4520 nM
- Kd (HLA-A*33:01; [1]): ≥ 37700 nM

Sequence: TTEMLSRALK
- Kd (HLA-A*11:01; [3]): 67.2 nM
- Kd (HLA-A*68:01; [3]): 12.8 nM
- Kd (HLA-A*31:01; [3]): 120 nM
- Kd (HLA-A*03:01; [3]): 101 nM
- Kd (HLA-A*33:01; [3]): 3910 nM

Sequence: TTTFITVLT
- Kd (HLA-A*02:02): 2460 nM
- Kd (HLA-A*02:03; [1]): 8590 nM
- Kd (HLA-A*02:06; [1]): 1090 nM

Sequence: TVQEFIFSAL
- Kd (HLA-A*02:02): 80.7 nM
- Kd (HLA-A*02:03; [1]): 90 nM
- Kd (HLA-A*02:06; [1]): 43.9 nM

Sequence: TVSALVYDNK
- Kd (HLA-A*11:01; [3]): 20.6 nM
- Kd (HLA-A*68:01; [3]): 5.88 nM
- Kd (HLA-A*31:01; [3]): 4890 nM
- Kd (HLA-A*03:01; [3]): 488 nM
- Kd (HLA-A*33:01; [3]): 9750 nM

Sequence: VMNIERQDYR
- Kd (HLA-A*11:01; [1]): 4140 nM
- Kd (HLA-A*68:01; [1]): 153 nM
- Kd (HLA-A*31:01; [1]): 46.7 nM
- Kd (HLA-A*03:01; [1]): 11400 nM
- Kd (HLA-A*33:01; [1]): 65.1 nM

Sequence: VQMLSDTLK
- Kd (HLA-A*11:01; [3]): 18.7 nM
- Kd (HLA-A*68:01; [3]): 2480 nM
- Kd (HLA-A*31:01; [3]): 413 nM
- Kd (HLA-A*03:01; [3]): 74.3 nM
- Kd (HLA-A*33:01; [3]): ≥ 77700 nM

Sequence: VSAQNISFK
- Kd (HLA-A*11:01; [1]): 9.62 nM
- Kd (HLA-A*68:01; [1]): 70.6 nM
- Kd (HLA-A*31:01; [1]): 1570 nM
- Kd (HLA-A*03:01; [1]): 14.6 nM
- Kd (HLA-A*33:01; [1]): ≥ 33900 nM

Sequence: VSDFRDYQSY
- Kd (HLA-A*11:01; [1]): 4640 nM
- Kd (HLA-A*68:01; [1]): ≥ 51200 nM
- Kd (HLA-A*31:01; [1]): ≥ 70000 nM
- Kd (HLA-A*03:01; [1]): ≥ 32200 nM
- Kd (HLA-A*33:01; [1]): ≥ 70000 nM

Sequence: VTDLENRLKK
- Kd (HLA-A*11:01; [1]): 14.5 nM
- Kd (HLA-A*68:01; [1]): ≥ 31700 nM
- Kd (HLA-A*31:01; [1]): ≥ 37700 nM
- Kd (HLA-A*03:01; [1]): 291 nM
- Kd (HLA-A*33:01; [1]): ≥ 70000 nM

Sequence: YFSFKKCLVY
- Kd (HLA-A*11:01; [1]): 107 nM
- Kd (HLA-A*68:01; [1]): 578 nM
- Kd (HLA-A*31:01; [1]): 2780 nM
- Kd (HLA-A*03:01; [1]): 33 nM
- Kd (HLA-A*33:01; [1]): 9060 nM

Sequence: YIRRNMINK
- Kd (HLA-A*11:01; [1]): 568 nM
- Kd (HLA-A*68:01; [1]): 168 nM
- Kd (HLA-A*31:01; [1]): 2370 nM
- Kd (HLA-A*03:01; [1]): 10.6 nM
- Kd (HLA-A*33:01; [1]): ≥ 21300 nM

Sequence: YLKNYKNFDY
- Kd (HLA-A*11:01; [1]): 2490 nM
- Kd (HLA-A*68:01; [1]): 7290 nM
- Kd (HLA-A*31:01; [1]): 1540 nM
- Kd (HLA-A*03:01; [1]): 4070 nM
- Kd (HLA-A*33:01; [1]): ≥ 70000 nM

Sequence: YLSSRAKLAL
- Kd (HLA-A*02:03; source organism: Dengue virus 4 Philippines/H241/1956): 28.1 nM

Sequence: YTCEDNTGIK
- Kd (HLA-A*11:01; [1]): 1060 nM
- Kd (HLA-A*68:01; [1]): 256 nM
- Kd (HLA-A*31:01; [1]): ≥ 70000 nM
- Kd (HLA-A*03:01; [1]): ≥ 29700 nM
- Kd (HLA-A*33:01; [1]): ≥ 70000 nM
